Columns and labels:
HLA-A*01:01 [1] = assay: IEDB peptide-MHC binding, purified MHC/direct/fluorescence; filed as Kd, often an IC50 or EC50 that approximates it; ≥ and ≤ were set here for values at or beyond the usual limits of such assays
HLA-A*02:01 = assay: as above
HLA-A*02:03 = assay: as above
HLA-A*02:06 = assay: as above
HLA-A*02:11 = assay: as above; conditions: source organism: Salmonella enterica subsp. arizonae serovar 62:z4,z23:-
HLA-A*02:12 = assay: as above
HLA-A*02:19 = assay: as above
HLA-A*03:01 = assay: as above
HLA-A*11:01 = assay: as above
HLA-A*31:01 = assay: as above
HLA-A*69:01 = assay: as above
HLA-B*07:02 = assay: as above
HLA-B*08:01 = assay: as above
HLA-B*15:01 = assay: as above
HLA-B*27:05 = assay: as above
HLA-B*40:01 = assay: as above
HLA-B*44:02 = assay: as above
HLA-B*58:01 = assay: as above
HLA-C*06:02 = assay: as above; conditions: source organism: Yersinia pestis Nepal516
HLA-A*24:02 = assay: as above
HLA-A*26:01 [2] = assay: as above; conditions: source organism: Rickettsia sibirica 246
HLA-B*08:02 = assay: as above; conditions: source organism: Rickettsia sibirica 246
HLA-B*46:01 = assay: as above; conditions: source organism: Brucella melitensis
HLA-A*23:01 = assay: as above; conditions: source organism: Amur virus
HLA-A*24:03 [3] = assay: as above; conditions: source organism: Amur virus
HLA-A*30:01 [4] = assay: IEDB peptide-MHC binding, purified MHC/competitive/fluorescence; filed as Kd, often an IC50 or EC50 that approximates it; ≥ and ≤ were set here for values at or beyond the usual limits of such assays
HLA-A*80:01 = assay: IEDB peptide-MHC binding, purified MHC/direct/fluorescence; filed as Kd, often an IC50 or EC50 that approximates it; ≥ and ≤ were set here for values at or beyond the usual limits of such assays
HLA-A*01:01 [5] = assay: IEDB peptide-MHC binding, purified MHC/competitive/fluorescence; filed as Kd, often an IC50 or EC50 that approximates it; ≥ and ≤ were set here for values at or beyond the usual limits of such assays; conditions: source organism: Homo sapiens
HLA-B*15:42 = assay: as above; conditions: source organism: Mammarenavirus lassaense
HLA-B*45:06 = assay: as above; conditions: source organism: Mammarenavirus lassaense
HLA-B*83:01 = assay: as above; conditions: source organism: Mammarenavirus lassaense
HLA-A*26:01 [6] = assay: IEDB peptide-MHC binding, purified MHC/competitive/radioactivity; filed as Kd, often an IC50 or EC50 that approximates it; ≥ and ≤ were set here for values at or beyond the usual limits of such assays; conditions: source organism: Mammarenavirus lassaense
HLA-A*29:02 [7] = assay: as above; conditions: source organism: Mammarenavirus lassaense
HLA-A*30:01 [8] = assay: as above; conditions: source organism: Mammarenavirus lassaense
HLA-A*30:02 = assay: as above; conditions: source organism: Mammarenavirus lassaense
HLA-A*32:01 = assay: as above; conditions: source organism: Mammarenavirus lassaense
HLA-A*24:03 [9] = assay: IEDB peptide-MHC binding, purified MHC/competitive/fluorescence; filed as Kd, often an IC50 or EC50 that approximates it; ≥ and ≤ were set here for values at or beyond the usual limits of such assays; conditions: source organism: Encephalitozoon cuniculi GB-M1
HLA-A*29:02 [10] = assay: IEDB peptide-MHC binding, purified MHC/direct/fluorescence; filed as Kd, often an IC50 or EC50 that approximates it; ≥ and ≤ were set here for values at or beyond the usual limits of such assays; conditions: source organism: Mammarenavirus machupoense
[11] = source organism: Yersinia enterocolitica
[12] = source organism: Salmonella enterica subsp. arizonae serovar 62:z4,z23:-
[13] = source organism: Rickettsia conorii
[14] = source organism: Brucella melitensis
[15] = source organism: Brucella ovis ATCC 25840
[16] = source organism: Mammarenavirus lassaense

For RIYSHIAPY, the Kd (HLA-A*01:01 [1]; [11]) was no less than 20 µM, the Kd (HLA-A*02:01; [11]) was 1.97 µM and the Kd (HLA-A*02:03; [12]) was 0.562 µM. The Kd (HLA-A*02:06; [12]) was 0.221 µM, the Kd (HLA-A*02:11) was 0.126 µM and the Kd (HLA-A*02:12; [12]) was 0.475 µM. It also gave a Kd (HLA-A*02:19; [12]) of no less than 20 µM, a Kd (HLA-A*03:01; [11]) of 0.0312 µM and a Kd (HLA-A*11:01; [11]) of 0.0368 µM. The Kd (HLA-A*31:01; [11]) was 0.0467 µM, the Kd (HLA-A*69:01; [11]) was no less than 20 µM and the Kd (HLA-B*07:02; [11]) was no less than 20 µM. For the same sequence, the Kd (HLA-B*08:01; [12]) was no less than 20 µM, the Kd (HLA-B*15:01; [11]) was 0.109 µM and the Kd (HLA-B*27:05; [11]) was 0.723 µM. It also gave a Kd (HLA-B*40:01; [11]) of no less than 20 µM, a Kd (HLA-B*44:02; [11]) of no less than 20 µM and a Kd (HLA-B*58:01; [11]) of 0.058 µM. For the same sequence, the Kd (HLA-C*06:02) was no less than 20 µM.

With SSSGMDAYY the Kd (HLA-A*01:01 [1]; [13]) was 0.0692 µM, the Kd (HLA-A*02:01; [13]) was no less than 20 µM and the Kd (HLA-A*03:01; [13]) was no less than 20 µM. The Kd (HLA-A*24:02; [13]) was no less than 20 µM, the Kd (HLA-A*26:01 [2]) was 0.124 µM and the Kd (HLA-A*31:01; [13]) was no less than 20 µM. For the same sequence, the Kd (HLA-A*69:01; [13]) was no less than 20 µM, the Kd (HLA-B*07:02; [13]) was no less than 20 µM and the Kd (HLA-B*08:01; source organism: Rickettsia sibirica 246) was no less than 20 µM. It also gave a Kd (HLA-B*08:02) of no less than 20 µM, a Kd (HLA-B*15:01; [13]) of 0.159 µM and a Kd (HLA-B*27:05; [13]) of no less than 20 µM. It also gave a Kd (HLA-B*40:01; [13]) of no less than 20 µM, a Kd (HLA-B*44:02; [13]) of no less than 20 µM and a Kd (HLA-B*58:01; [13]) of 0.216 µM.

CTDPPLLSV was tested, and the Kd (HLA-A*01:01 [1]; [14]) was 6.98 µM, the Kd (HLA-A*02:01; [14]) was 0.526 µM and the Kd (HLA-A*02:03; [15]) was 1.05 µM. The Kd (HLA-A*02:06; [15]) was 0.023 µM, the Kd (HLA-A*02:12; [15]) was 0.529 µM and the Kd (HLA-A*02:19; [15]) was no less than 20 µM. It also gave a Kd (HLA-A*03:01; [14]) of no less than 20 µM, a Kd (HLA-A*11:01; [14]) of no less than 20 µM and a Kd (HLA-A*24:02; [14]) of no less than 20 µM. It also gave a Kd (HLA-A*31:01; [14]) of no less than 20 µM, a Kd (HLA-B*07:02; [14]) of no less than 20 µM and a Kd (HLA-B*15:01; [14]) of no less than 20 µM. It also gave a Kd (HLA-B*27:05; [14]) of no less than 20 µM, a Kd (HLA-B*40:01; [14]) of no less than 20 µM and a Kd (HLA-B*44:02; [14]) of no less than 20 µM. For the same sequence, the Kd (HLA-B*46:01) was no less than 20 µM and the Kd (HLA-B*58:01; [14]) was no less than 20 µM.

Sequence ESPSSIWVF has a Kd (HLA-A*23:01) of 0.145 µM, a Kd (HLA-A*24:02; source organism: Amur virus) of 0.0058 µM and a Kd (HLA-A*24:03 [3]) of 1.22 µM. The Kd (HLA-A*30:01 [4]; source organism: Hantaan virus 76-118) was 2.33 µM.

With CSDSDGLAP the Kd (HLA-A*80:01; source organism: Homo sapiens) was no less than 20 µM, the Kd (HLA-A*01:01 [5]) was no less than 20 µM and the Kd (HLA-A*30:01 [4]; source organism: Homo sapiens) was no less than 20 µM.

LIDGRTSFY showed a Kd (HLA-A*01:01 [1]; [16]) of 0.0009 µM, a Kd (HLA-A*80:01; [16]) of 0.0148 µM and a Kd (HLA-B*15:42) of no less than 5 µM. For the same sequence, the Kd (HLA-B*45:06) was no less than 5 µM, the Kd (HLA-B*83:01) was no less than 5 µM and the Kd (HLA-A*26:01 [6]) was 14.4 µM. It also gave a Kd (HLA-A*29:02 [7]) of 1.15 µM, a Kd (HLA-A*30:01 [8]) of no less than 51.3 µM and a Kd (HLA-A*30:02) of 1.21 µM. For the same sequence, the Kd (HLA-A*32:01) was no less than 77.8 µM.

Sequence RVLENTHIF has a Kd (HLA-A*24:03 [9]) of 0.0029 µM and a Kd (HLA-A*30:01 [4]; source organism: Encephalitozoon cuniculi GB-M1) of 0.222 µM.

For ISEMLSKEY, the Kd (HLA-A*01:01 [1]; source organism: Mammarenavirus cupixiense) was 0.545 µM, the Kd (HLA-A*29:02 [10]) was 0.179 µM and the Kd (HLA-A*80:01; source organism: Mammarenavirus machupoense) was 8 µM.

From the Immune Epitope Database (IEDB)
